Source: article PMC3531742 (The Journal of Biological Chemistry, 2012)

Experiments:
[1] = target: laminin β1 LN-LEa1–4 fragment (mouse); test: SPR
[2] = target: laminin β1 LN-LEa1–4 fragment (mouse); test: SEC-MALS

Kd [1]: 22.3 ± 1.7 µM
stoichiometry N [2]: 1
B1: laminin γ1 LN-LEa1–4 fragment (domain or fragment)
chain: APLAAMDECADEGGRPQRCMPEFVNAAFNVTVVATNTCGTPPEEYCVQTGVTGVTKSCHLCDAGQQHLQHGAAFLTDYNNQADTTWWQSQTMLAGVQYPNSINLTLHLGKAFDITYVRLKFHTSRPESFAIYKRTREDGPWIPYQYYSGSCENTYSKANRGFIRTGGDEQQALCTDEFSDISPLTGGNVAFSTLEGRPSAYNFDNSPVLQEWVTATDIRVTLNRLNTFGDEVFNEPKVLKSYYYAISDFAVGGRCKCNGHASECVKNEFDKLMCNCKHNTYGVDCEKCLPFFNDRPWRRATAESASECLPCDCNGRSQECYFDPELYRSTGHGGHCTNCRDNTDGAKCERCRENFFRLGNTEACSPCHCSPVGSLSTQCDSYGRCSCKPGVMGDKCDRCQPGFHSLTEAGCRPCSCDPSGSTDECNVETGRCVCKDNVEGFNCERCKPGFFNLESSNPKGCTPAAAHHHHHH
